16 molecules from US20160376343A1 (NATIONAL INSTITUTE FOR BIOTECHNOLOGY IN THE NEGEV, published 2016) can be followed below.

The chains are these.
B1: V1 expressed in E. coli (Trx-6xHis-tagged) (receptor)
chain: LRLLDHRALVCSQEGLNCTVKNSTCLDDSWIHPRNLTPSSPKNLQIQLHFAHTQQGDLLPVAHIEWTLQTDASILYLEGAELSVLQLNTNERLCVRFEFLSKLRHHHKRWRFTFSHFVVDPDQEYEVTVHHLPKPIPDGDPNHQSKNFLVPDCEDARMKVTTPCMSSGSLWDPNITVETLEAHQLRVSFTLWNESTHYQILLTSFPHMENHSCFEHMHHIPAPRPEEFHQRSNVTLTLSNLKGCCRHQVQIQPFFSSCLNDCLRHSATVSCPEMPDTPEPIPDYMPLW
notes: Tested as cleared E. coli lysate; not shown: N-terminal thioredoxin (Trx)-6xHistidine tag of pET32
B2: V18 expressed in E. coli (Trx-6xHis-tagged) (receptor)
chain: LRLLDHRALVCSQPGLNCTVKNSTCLDDSWIHPRNLTPSSPKDLQIQLHFAHTQQGDLFPVAHIEWTLQTDASILYLEGAELSVLQLDTNERLCVRFEFLSKLRHHHRRWRFTFSHFVVDPGQEYEVTVHHLPKPIPDGDPNHQSKNFLVPDCEDARMKVTTPCMSSGSLWDPNITVETLEAHQLRVSFTLWNESTHYQILLTSFPHMENHSCFEHMHHIPAPRPEEFHQRSNVTLTLRNLKGCCRHQVQIQPFFSSCLNDCLRHSATVSCPEMPDTPEPIPDYMPLW
notes: as for B1
B3: V5 expressed in E. coli (Trx-6xHis-tagged) (receptor)
chain: LRLLDHRALVCSQPGLNCTVKNSTCLDDSWIHPRNLTPSSPKNLQIQLHFAHTQQGDLLPVAHIEWTLQTDASILYLEGAELSVLQLNTNERLCVKFEFLSKLRHHHKRWRFTFSHFVVDPDQEYEVTVHHLPKPIPDGDPNHQSKNFLVPDCEHARMKVTTPCMSSGSLWDPNITVETLEAHQLRVSFTLWNESTHYQILLTSFPHMENHSCFEHMHHIPAPRPEEFHQRSNVTLTLRNLKGCCRHQVQIQPFFSSCLNDCLRHSATVSCPEMPDTPEPIPDYMPLW
notes: as for B1
B4: V17 expressed in E. coli (Trx-6xHis-tagged) (receptor)
chain: LRLLDHRALVCSQPGLNCTVKNSTCLDDSWIHPRNLTPSSPKDLQIQLHFAHTQQGDLLPVAHIEWTLQTDASILYLEGAELSVLQLNTNERLCVRFEFLSELRHHHRRWRFTFSHFVVDPGQEYEVTVHHLPKPIPDGDPNHQSKNFLVPDCEDARMKVTTPCMSSGSLWDPNITVETLEAHQLRVSFTLWNESTHYQILLTSFPHMENHSCFEHMHHIPAPRPEEFHQRSNVTLTLRNLKGCCRHQVQIQPFFSSCLNDCLRHSATVSCPEMPDTPEPIPDYMPLW
notes: as for B1
B5: V20 expressed in E. coli (Trx-6xHis-tagged) (receptor)
chain: LRLLDHRAPVCSQEGLNCTVKNSTCLDDSWIHPRNLTPSSPKDVQIQLHFAHTQQGDLVPVAHIEWTLQTDASILYLEGAELSVLQLNTNERLCVRFEFLSKLRHHHRRWRFTFSHFVVDPDREYEVTVHHLPKPIPDGDPNHQSKNFLVPDCEHPRMKVTTPCMSSGSLWDPNITVETLEAHQLRVSFTLWNESTHYQILLTSFPHMENHSCFEHMHHIPAPRPEEFHQRSNVTLTLRNLKGCCRHQVQIQPFFSSCLNDCLRHSATVSCPEMPDTPEPIPDYMPLW
notes: as for B1
B6: V14 expressed in E. coli (Trx-6xHis-tagged) (receptor)
chain: LRLLDHRALVCSQPGLNCTVKNSTCLDDSWIHPRNLTPSSPKDVQIQLHFAHTQHGDLFPVAHIEWTLQTDASILYLEGAELSVLQLNTNERLCVRFEFLSKLRHHHKRWRFTFSHFVVDPDQEYEVTVHHLPKPIPDRDPNHQSKNFLVPDCEDARMKVTTPCMSSGSLWDPNITVETLEAHQLRVSFTLWNESTHYQILLTSFPHMENHSCFEHMHHIPAPRPEEFHQRSNVTLTLRNLKGCCRHHVQIQPFFSSCLNDCLRHSVTVSCPEMPDTPEPIPDYMPLW
notes: as for B1
B7: V15 expressed in E. coli (Trx-6xHis-tagged) (receptor)
chain: LRLLDHRALVCSQPGLNCTVKNSTCLDDSWIHPRNLTPSSPKDVQIQLHFAHTQQGDLFPVAHIEWTLQTDASILYLEGAELSVLQLNTNERLCVRFEILSKLRHHHRRWRFTFSHFVVDPGQEYEVTVHHLPKPIPDGDPNHQSKNFLVPDCEHARMKVTTPCMSSGSLWDPNITVETLEAHQLRVSFTLWNESTHYQILLTSFPHMENHSCFEHMHHIPAPRPEEFHQRSNVTLTLRNLKGCCRHQVQIQPFFSSCLNDCLRHSVTVSCPEMPDTPEPIPDYMPLW
notes: as for B1
B8: V16 expressed in E. coli (Trx-6xHis-tagged) (receptor)
chain: LRLLDHRAPVCSQEGLNCTVKNSTCLDDSWIHPRNLTPSSPKDLQIQLHFAHTQQGDLFPVAHIEWTLQTDASILYLEGAELSVLQLNTNERLCVRFEFLSKLRHHHKRWRFTFSHFVVDPDQEYEVTVHHLPKPIPDGDPNHQSKNFLVPDCEDARMKVTTPCMSSGSLWDPNITVETLEAHQLRVSFTLWNESTHYQILLTSFPHMENHSCFEHMHHIPAPRPEEFHQRSNVTLTLRNLKGCCRHQVQIQPFFSSCLNDCLRHSATVSCPEMPDTPEPIPDYMPLW
notes: as for B1
B9: V12 expressed in E. coli (Trx-6xHis-tagged) (receptor)
chain: LRLLDHRAPVCSQPGLNCTVKNSTCLDDSWIHPRNLTPSSPKDLQIQLHFAHTQQGDLFPVAHIEWTLQTDASILYLEGAELSVLQLNTNERLCVRFEFLSKLRHHHRRWRFTFSRFVVDPDQEYEVTVHHLPKPIPDGDPNHQSKNFLVPDCEHPRMKVTTPCMSSGSLWDPNITVETLEAHQLRVSFTLWNESTHYQILLTSFPHMENHSCFEHMHHIPAPRPEEFHQRSNVTLTLRNLKGCCRHQVQIQPFFSSCLNDCLRHSATVSCPEMPDTPEPIPDYMPLW
notes: as for B1
B10: V11 expressed in E. coli (Trx-6xHis-tagged) (receptor)
chain: LRLLDHRALVCSQEGLNCTVKNSTCLDDSWIHPRNLTPSSPKDLQIQLHFAHTQQGDLFPVAHIEWTLQTDASILYLEGAELSVLQLNTNERLCVRFEFLSKLRHHHKRWRFTFSHFVVDPDREYEVTVHHLPKPIPDGDPNHQSKNFLVPDCEHPRMKVTTPCMSSGSLWDPNITVETLEAHQLRVSFTLWNESTHYQILLTSFPHMENHSCFEHMHHIPAPRPEEFHQRSNVTLTLRNLKGCCRHQVQIQPFFSSCLNDCLRHSATVSCPEMPDTPEPIPDYMPLW
notes: as for B1
B11: V8 expressed in E. coli (Trx-6xHis-tagged) (receptor)
chain: LRLLDHRALVCSQEGLNCTVKNSTCLDDSWIHPRNLTPSSPKDLQIQLHFAHTQQGDLFPVAHIEWTLQTDASILYLEGAELSVLQLNTNERLCVRFEFLSKLRHHHKRWRFTFSHFVVDPDQEYEVTVHHLPKPIPDGDPNHQSKNFLVPDCEDARMKVTTPCMSSGSLWDPNITVETLEAHQLRVSFTLWNESTHYQILLTSFPHMENHSCFEHMHHIPAPRPEEFHQRSNVTLTLRNLKGCCRHQVQIQPFFSSCLNDCLRHSATVSCPEMPDTPEPIPDYMPLW
notes: as for B1
B12: V19 expressed in E. coli (Trx-6xHis-tagged) (receptor)
chain: LRLLDHQALVCSQEGLNCTVKNSTCLDDSWIHPRNLTPSSPKDIQIQLHFAHTQQGDLLPVAHIEWTLQTDASILYLEGAELSVLQLNTNERLCVRFEFLSKLRHHHRRWRFTFSHFVVDPDQEYEVTVHHLPKPIPDGDPNHQSKNFLVPDCEHARMKVTTPCMSSGSLWDPNITVETLEAHQLRVSFTLWNESTHYQILLTSFPHMENHSCFEHMHHIPAPRPEEFHQRSNVTLTLRNLKGCCRHQVQIQPFFSSCLNDCLRHSATVSCPEMPDTPEPIPDYMPLW
notes: as for B1
B13: V21 expressed in E. coli (Trx-6xHis-tagged) (receptor)
chain: LRLLDHRALVCSQPGLNCTVKNSTCLDDSWIHPRNLTPSSPKDLQIQLHFAHTQQGDLLPVAHIEWTLQTDASILYLEGAELSVLQLNTNERLCVRFEFLSKLRHHHKRWRFTFSHFVVDPGQEYEVTVHHLPKPIPDGDPNHQSKNFLVPDCEHPRMKVTTPCMSSGSLWDPNITVETLKAHQLRVSFTLWNESTHYQILLISFPHMENHSCFEHMHHIPAPRPEEFHQRSNVTLTLRNLKGCCRHQVQIQPFFSSCLNDCLRHSATVSCPEMPDTPEPIPDYMPLW
notes: as for B1
B14: V13 expressed in E. coli (Trx-6xHis-tagged) (receptor)
chain: LRLLDHRALVCSQPGLNCTVKNSTCLDDSWIHPRNLTPSSPKDLQIQLHFAHTQQGDLFPVAHIEWTLQTDASILYLEGAELSVLQLNTNERLCVKFEFLSKLRHHHRRWRFTFSHFVVDPDQEYEVTVHHLPKPIPDGDPNHQSKNFLVPDCEDARMKVTTPCMSSGSLWDPNITVETLEAHQLRVSFTLWDESTHYQILLTSFPHMENHSCFEHMHHIPAPRPEEFHQRSNVTLTLRNLKWCCRHQVQIQPFFSSCLNDCLRHSATVSCPEMPDTPEPIPDYMPLW
notes: as for B1
B15: V7 expressed in E. coli (Trx-6xHis-tagged) (receptor)
chain: LRLLDHRALVCSQPGLNCTVKNSTCLDDSWIHPRNLTPSSPKDLQIQLHFAHTQQGDLVPVAHIEWTLQTDASILYLEGAELSVLQLNTNERLCVRFEFLSKLRHHHKRWRFTFSHFVVDPDQEYEVTVHHLPKPIPDGDPNHQSKNFLVPDCEDARMKVTTPCMSSGSLWDPNITVETLEAHQLRVSFTLWNESTHYQILLTSFPHMENHSCFEHMHHIPAPRPEEFHQRSNVTLTLRNLKGCCRHQVQIQPFFSSCLNDCLRHSATVSCPEMPDTPEPIPDYMPLW
notes: as for B1
B16: V4 expressed in E. coli (Trx-6xHis-tagged) (receptor)
chain: LRLLDHRALVCSQPGLNCTVKNSTCLDDSWIHPRNLTPSSPKDIQIQLHFAHTQQGDLLPVAHIEWTPQTDASILYLEGAELSVLQLNTNERLCVRFEFLSKLRHHHRRWRFTFSHFVVDPDQEYEVTVHHLPKPIPDGDPNHQSKNFLVPDCEDARMKVTTPCMSSGSLWDPNITVETLEAHQLRVSFTLWNESTHYQILLTSFPHMENHSCFEHMHHIPAPRPEEFHQRSNVTLTLRNLKGCCRHQVQIQPFFSSCLNDCLRHSATVSCPEMPDTPEPIPDYMPLW
notes: as for B1

T1 sequence (Q16552 24-155 limits assumed): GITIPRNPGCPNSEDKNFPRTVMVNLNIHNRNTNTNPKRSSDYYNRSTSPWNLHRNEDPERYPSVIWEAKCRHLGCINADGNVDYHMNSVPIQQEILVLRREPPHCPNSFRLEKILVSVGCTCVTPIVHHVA

This test addresses T1, hIL-17A (human, UniProt Q16552 24-155).
T1 construct: Bought protein
Nature of the test: ELISA on captured hIL-17A, cleared E. coli lysates. Background: ELISA stands for enzyme-linked immunosorbent assay.
As to B1, the binding result is “binds”.

Consider B2, for which the binding result is reported as “binds”.

Regarding B3, the binding result is reported as “binds”.

Regarding B4, the binding result is “binds”.

In the case of B5, the binding result is “binds”.

For the molecule B6, the binding result is recorded as “binds”.

Turning to B7, the binding result was “binds”.

For B8, the binding result was “binds”.

B9: the binding result is given as “binds”.

For B10, the binding result was “binds”.

Turning to B11, the binding result was “binds”.

Consider B12, for which the binding result was “binds”.

Turning to B13, the binding result is recorded as “binds”.

Take B14: the binding result is reported as “binds”.

On to B15, for which the binding result was “binds”.

In the case of B16, the binding result is recorded as “binds”.
